According to the RNAGym collection of RNA variant scans (doi:10.1073/pnas.2313332121):

B1: TPR t1 (parent)
chain: GACCAAUCUGCCCUCAGAGCUCGAGAACAUCUUCGGAUGCAGAGGAGGCAGGCUUCGGUGGCGCGAUAGCGCCAACGUCCUCAACCUCCAAUGCAUCCCACCACAUGAUGAUGCCUGAAGAGCCUUGGUUUUUUG

Variants of: B1
Experiment: polymerase ribozyme fitness, log enrichment relative to wild type (log ratio); higher = more active; in vitro selection for triplet polymerase activity
Method in brief: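 Mutant libraries for each subunit of a heterodimeric triplet polymerase ribozyme were made by PCR and then transcribed. Each library underwent one round of in vitro selection in triplicate: annealing with a biotinylated primer, the partner subunit and triplets, frozen incubation at −7 °C, gel excision of extended constructs, streptavidin-bead capture and RT-PCR. Input and output libraries were Illumina-sequenced, and only genotypes with ≥10 input reads and ≥1 read per output were kept. Fitness is the logarithm, base 2, of genotype enrichment over wild-type enrichment, computed from inverse-variance-weighted replicate averages.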

Question: With G10C G47U C89U as the variant, how does the “polymerase ribozyme fitness (log ratio)” value read?
Answer: -5.13

Question: With G10U C15G G19U G63A G113U C124A as the variant, how does the “polymerase ribozyme fitness (log ratio)” value read?
Answer: -5.07

Question: For G10U G48A G93A C114G, which “polymerase ribozyme fitness (log ratio)” value is on record?
Answer: -5.11

Question: For G10A G42U C49A G61C C98A U112G U130G, which “polymerase ribozyme fitness (log ratio)” value is on record?
Answer: -7.46

Question: With G10C U92C G113U as the variant, how does the “polymerase ribozyme fitness (log ratio)” value read?
Answer: -4.69

Question: For G10A G51U G71U C101A, which “polymerase ribozyme fitness (log ratio)” value is on record?
Answer: -6.07

Question: Which “polymerase ribozyme fitness (log ratio)” value does the source give for G10U G36C C86G G128C here?
Answer: -5.29

Question: For G10U C70A, which “polymerase ribozyme fitness (log ratio)” value is on record?
Answer: -1.66

Question: With G10U C28G G60A C85A U131G as the variant, how does the “polymerase ribozyme fitness (log ratio)” value read?
Answer: -4.5

Question: With G10U G77U U78G C114A as the variant, how does the “polymerase ribozyme fitness (log ratio)” value read?
Answer: -2.65

Question: For G10C C72U, which “polymerase ribozyme fitness (log ratio)” value is on record?
Answer: -1.32

Question: Which “polymerase ribozyme fitness (log ratio)” value does the source give for G10C C64U C79U A105G here?
Answer: -3.38

Question: For G10A U130C, which “polymerase ribozyme fitness (log ratio)” value is on record?
Answer: 0.4

Question: With G10U G61A C123G as the variant, how does the “polymerase ribozyme fitness (log ratio)” value read?
Answer: 1.03

Question: Which “polymerase ribozyme fitness (log ratio)” value does the source give for G10U U59C U96G G117A here?
Answer: -4.44

Question: For G10C C11U C20U G48A C82U, which “polymerase ribozyme fitness (log ratio)” value is on record?
Answer: -3

Question: For G10A C79A C123U, which “polymerase ribozyme fitness (log ratio)” value is on record?
Answer: 1.23

Question: With G10A G23A as the variant, how does the “polymerase ribozyme fitness (log ratio)” value read?
Answer: -4.78

Question: Which “polymerase ribozyme fitness (log ratio)” value does the source give for G10U C72A here?
Answer: -0.423

Question: With G10U C72U as the variant, how does the “polymerase ribozyme fitness (log ratio)” value read?
Answer: -0.415

Question: For G10U G77A G93U U129C, which “polymerase ribozyme fitness (log ratio)” value is on record?
Answer: -2.07

Question: With G10C C76G as the variant, how does the “polymerase ribozyme fitness (log ratio)” value read?
Answer: -1.17

Question: With G10U C11G as the variant, how does the “polymerase ribozyme fitness (log ratio)” value read?
Answer: 0.195

Question: For G10U G19C A37U C72A C123G U130C, which “polymerase ribozyme fitness (log ratio)” value is on record?
Answer: -1.39

Question: With G10A G52U C56G C98U G113U as the variant, how does the “polymerase ribozyme fitness (log ratio)” value read?
Answer: -6.91

Question: Which “polymerase ribozyme fitness (log ratio)” value does the source give for G10U G47A here?
Answer: -0.776

Question: Which “polymerase ribozyme fitness (log ratio)” value does the source give for G10U G61U here?
Answer: 0.128

Question: For G10A G39U G51A C70U, which “polymerase ribozyme fitness (log ratio)” value is on record?
Answer: -5.24

Question: For G10U C13A A16U G110C U125A, which “polymerase ribozyme fitness (log ratio)” value is on record?
Answer: -6.47

Question: For G10U A18C, which “polymerase ribozyme fitness (log ratio)” value is on record?
Answer: -2.58

Question: For G10U C53G C70U C86U A119G, which “polymerase ribozyme fitness (log ratio)” value is on record?
Answer: -0.267

Question: Which “polymerase ribozyme fitness (log ratio)” value does the source give for G10C C12A A18C G42U G71A G117U G122U U130G here?
Answer: -3.23

Question: With G10C U112G as the variant, how does the “polymerase ribozyme fitness (log ratio)” value read?
Answer: 0.149

Question: With G10C G69U G107C G120U as the variant, how does the “polymerase ribozyme fitness (log ratio)” value read?
Answer: -2.44

Question: Which “polymerase ribozyme fitness (log ratio)” value does the source give for G10C G71U C114A A118C here?
Answer: -6.14

Question: With G10U U55A G71C as the variant, how does the “polymerase ribozyme fitness (log ratio)” value read?
Answer: -1.11

Question: With G10C U38G C53G G63C A111U C124U U133G as the variant, how does the “polymerase ribozyme fitness (log ratio)” value read?
Answer: -5.15

Question: For G10C G39A G61A, which “polymerase ribozyme fitness (log ratio)” value is on record?
Answer: -1.27

Question: Which “polymerase ribozyme fitness (log ratio)” value does the source give for G10U C13U C70A here?
Answer: -0.716

Question: With G10A G48A G52A as the variant, how does the “polymerase ribozyme fitness (log ratio)” value read?
Answer: -1.11

Question: For G10U C73A U78G A111G, which “polymerase ribozyme fitness (log ratio)” value is on record?
Answer: 0.173

Question: With G10A G42A A43U as the variant, how does the “polymerase ribozyme fitness (log ratio)” value read?
Answer: -1.82

Question: Which “polymerase ribozyme fitness (log ratio)” value does the source give for G10A G45U G113A here?
Answer: -1.45

Question: With G10U A26G as the variant, how does the “polymerase ribozyme fitness (log ratio)” value read?
Answer: -2.71

Question: With G10C G42C G77A C85A C86G C114A as the variant, how does the “polymerase ribozyme fitness (log ratio)” value read?
Answer: -5.24

Question: For G10U A27G U106C C123A, which “polymerase ribozyme fitness (log ratio)” value is on record?
Answer: 0.556

Question: With G10C C12G C72A A105U as the variant, how does the “polymerase ribozyme fitness (log ratio)” value read?
Answer: -3.93

Question: Which “polymerase ribozyme fitness (log ratio)” value does the source give for G10A G52U G63A C70G here?
Answer: -2.51

Question: For G10U A91G C101U, which “polymerase ribozyme fitness (log ratio)” value is on record?
Answer: -0.603

Question: Which “polymerase ribozyme fitness (log ratio)” value does the source give for G10C C99U here?
Answer: -4.44

Question: With G10U C12A G60A as the variant, how does the “polymerase ribozyme fitness (log ratio)” value read?
Answer: -0.594

Question: For G10A G128U, which “polymerase ribozyme fitness (log ratio)” value is on record?
Answer: -2.02

Question: For G10U C86A C102U, which “polymerase ribozyme fitness (log ratio)” value is on record?
Answer: -2.34

Question: Which “polymerase ribozyme fitness (log ratio)” value does the source give for G10A G47C G63A C97U C101A C102U here?
Answer: -8.22

Question: With G10A U55G as the variant, how does the “polymerase ribozyme fitness (log ratio)” value read?
Answer: -0.319

Question: For G10U G60C G122A, which “polymerase ribozyme fitness (log ratio)” value is on record?
Answer: 0.255

Question: For G10A G69U C79U C98A, which “polymerase ribozyme fitness (log ratio)” value is on record?
Answer: -2

Question: For G10U U14A U116C A121C, which “polymerase ribozyme fitness (log ratio)” value is on record?
Answer: -4.9

Question: For G10C A18U G93A U130C, which “polymerase ribozyme fitness (log ratio)” value is on record?
Answer: -3.83

Question: Which “polymerase ribozyme fitness (log ratio)” value does the source give for G10U G60C C79U G120C here?
Answer: 0.981

Question: For G10U G47C G51A C53G C56U, which “polymerase ribozyme fitness (log ratio)” value is on record?
Answer: -2.84

Question: For G10C U78C U106A U109G, which “polymerase ribozyme fitness (log ratio)” value is on record?
Answer: -4.27

Question: For G10A C85U, which “polymerase ribozyme fitness (log ratio)” value is on record?
Answer: -0.189

Question: Which “polymerase ribozyme fitness (log ratio)” value does the source give for G10C G19C A43G C72U U112C C123A here?
Answer: -1.54

Question: For G10C C11A, which “polymerase ribozyme fitness (log ratio)” value is on record?
Answer: -1.06

Question: Which “polymerase ribozyme fitness (log ratio)” value does the source give for G10U G42U G45A G61U C85U here?
Answer: -2.25

Question: Which “polymerase ribozyme fitness (log ratio)” value does the source give for G10U A50C C73A U78G A90G here?
Answer: -0.824

Question: For G10U C34A G44A C72A, which “polymerase ribozyme fitness (log ratio)” value is on record?
Answer: -5.99

Question: With G10C C15A A50U C115U as the variant, how does the “polymerase ribozyme fitness (log ratio)” value read?
Answer: -5.25

Question: With G10A C104U as the variant, how does the “polymerase ribozyme fitness (log ratio)” value read?
Answer: -0.557

Question: Which “polymerase ribozyme fitness (log ratio)” value does the source give for G10A G51U C56G here?
Answer: -5.12

Question: With G10U C89A C114A as the variant, how does the “polymerase ribozyme fitness (log ratio)” value read?
Answer: -2.81

Question: Which “polymerase ribozyme fitness (log ratio)” value does the source give for G10C G61U here?
Answer: -1.1

Question: With G10A G44A G63C as the variant, how does the “polymerase ribozyme fitness (log ratio)” value read?
Answer: -0.955

Question: With G10U C73G U92A C101U C104U as the variant, how does the “polymerase ribozyme fitness (log ratio)” value read?
Answer: -4.21

Question: With G10C G51A U106A U112A as the variant, how does the “polymerase ribozyme fitness (log ratio)” value read?
Answer: -5.36

Question: With G10U A29G G52U C79G as the variant, how does the “polymerase ribozyme fitness (log ratio)” value read?
Answer: -2.85

Question: With G10U C20A A50C C102A C114U as the variant, how does the “polymerase ribozyme fitness (log ratio)” value read?
Answer: -6.03

Question: For G10C A27C U55C C70U, which “polymerase ribozyme fitness (log ratio)” value is on record?
Answer: -7.04

Question: With G10U A18U A29U U54A A121C as the variant, how does the “polymerase ribozyme fitness (log ratio)” value read?
Answer: -1.32

Question: With G10A U112G as the variant, how does the “polymerase ribozyme fitness (log ratio)” value read?
Answer: 1.07

Question: For G10U C12U C22A C56U U112C, which “polymerase ribozyme fitness (log ratio)” value is on record?
Answer: -1.17

Question: For G10A G52A G60A C79A C115A, which “polymerase ribozyme fitness (log ratio)” value is on record?
Answer: -2.07
